Five molecules from patent US20140087995A1 (published 2014) can be followed below.

Numbered stars: 1 amine (or outer) side, 2 acyl side, 3 side chain; on linkers, the order of the positions; unused ones are H or OH. Bridge positions count the residues as written; N and C are the ends. Side chains are listed from the residue outwards. Ends that are not written are not given here. * marks the point of attachment. C20 diacid = O=C(O)CCCCCCCCCCCCCCCCCCC(=O)*; γGlu = O=C(O)[C@H](CCC(=O)[*:2])N[*:1]; AEEA = NCCOCCOCC(=O)O

First the molecules themselves.
T1: rat amylin receptor (rat calcitonin receptor + rat RAMP 3) (rat, UniProt P32214 25-516; Q9JJ73 23-147)
T1 construct: whole, on cells; Used as membranes prepared from BHK tk'ts 13 cells transiently transfected with rat calcitonin receptor and rat RAMP 3 (Assay VI); also called rAmylin-R; rat amylin 3(a) receptor
T1 sequence (looked up) 1: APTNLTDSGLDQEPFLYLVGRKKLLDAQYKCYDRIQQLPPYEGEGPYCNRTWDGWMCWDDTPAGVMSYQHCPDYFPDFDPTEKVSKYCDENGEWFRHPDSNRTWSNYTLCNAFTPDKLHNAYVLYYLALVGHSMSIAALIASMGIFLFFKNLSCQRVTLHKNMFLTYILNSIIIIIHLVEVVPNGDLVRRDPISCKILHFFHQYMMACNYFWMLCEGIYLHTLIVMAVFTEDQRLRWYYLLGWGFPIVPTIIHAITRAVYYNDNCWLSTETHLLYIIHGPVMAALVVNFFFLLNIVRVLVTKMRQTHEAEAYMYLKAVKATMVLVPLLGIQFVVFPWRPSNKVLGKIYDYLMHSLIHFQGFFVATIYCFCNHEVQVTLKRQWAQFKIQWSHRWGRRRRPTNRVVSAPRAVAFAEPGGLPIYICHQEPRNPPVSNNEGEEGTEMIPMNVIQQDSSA
T1 sequence (looked up) 2: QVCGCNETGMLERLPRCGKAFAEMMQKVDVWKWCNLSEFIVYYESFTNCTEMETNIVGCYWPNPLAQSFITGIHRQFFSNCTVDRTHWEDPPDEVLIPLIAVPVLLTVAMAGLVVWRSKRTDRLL

T2: human calcitonin receptor (human, UniProt P30988 25-474)
T2 construct: whole, on cells; Used as membranes prepared from a BHK tk'ts 13 cell line stably transfected with the human calcitonin receptor (Assay VII); also called hCTR; hCT
T2 sequence (looked up): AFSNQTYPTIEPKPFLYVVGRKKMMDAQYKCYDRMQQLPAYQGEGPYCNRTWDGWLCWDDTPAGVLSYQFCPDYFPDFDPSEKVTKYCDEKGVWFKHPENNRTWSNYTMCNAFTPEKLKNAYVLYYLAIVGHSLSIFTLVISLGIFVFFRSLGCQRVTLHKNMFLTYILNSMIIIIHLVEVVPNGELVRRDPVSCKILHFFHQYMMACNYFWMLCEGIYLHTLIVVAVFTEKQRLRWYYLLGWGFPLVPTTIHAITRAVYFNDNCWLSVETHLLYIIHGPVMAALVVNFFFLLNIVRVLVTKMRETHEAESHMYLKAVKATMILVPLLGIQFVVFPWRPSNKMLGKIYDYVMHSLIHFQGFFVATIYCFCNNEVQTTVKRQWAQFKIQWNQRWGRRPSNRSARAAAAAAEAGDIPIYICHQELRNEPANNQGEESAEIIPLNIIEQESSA

T3: rat calcitonin receptor (rat, UniProt P32214 25-516)
T3 construct: whole, on cells; Used as membranes prepared from BHK tk'ts 13 cells transiently transfected with the rat calcitonin receptor (Assay VIII); also called rCTR; rat calcitonin (a) receptor
T3 sequence (looked up): T1 sequence (looked up) 1

B1: N^ε1-[2-[2-[2-[[(4S)-4-carboxy-4-(19-carboxynonadecanoylamino)butanoyl]amino]ethoxy]ethoxy]acetyl]-[Lys14,Arg17,Pro21,Pro27,Pro31]-h-amylin (peptide)
peptide: K([AEEA-γGlu-C20 diacid])CNTATCATQRLAKFLRHSSPNFGAIPSSTPVGSNTY-NH2
modifications: disulfide 2-7; N-terminus assumed
SMILES: CC[C@H](C)[C@H](NC(=O)[C@H](C)NC(=O)CNC(=O)[C@H](Cc1ccccc1)NC(=O)[C@H](CC(N)=O)NC(=O)[C@@H]1CCCN1C(=O)[C@H](CO)NC(=O)[C@H](CO)NC(=O)[C@H](Cc1c[nH]cn1)NC(=O)[C@H](CCCNC(=N)N)NC(=O)[C@H](CC(C)C)NC(=O)[C@H](Cc1ccccc1)NC(=O)[C@H](CCCCN)NC(=O)[C@H](C)NC(=O)[C@H](CC(C)C)NC(=O)[C@H](CCCNC(=N)N)NC(=O)[C@H](CCC(N)=O)NC(=O)[C@@H](NC(=O)[C@H](C)NC(=O)[C@@H]1CSSC[C@H](NC(=O)[C@@H](N)CCCCNC(=O)COCCOCCNC(=O)CC[C@H](NC(=O)CCCCCCCCCCCCCCCCCCC(=O)O)C(=O)O)C(=O)N[C@@H](CC(N)=O)C(=O)N[C@@H]([C@@H](C)O)C(=O)N[C@@H](C)C(=O)N[C@@H]([C@@H](C)O)C(=O)N1)[C@@H](C)O)C(=O)N1CCC[C@H]1C(=O)N[C@@H](CO)C(=O)N[C@@H](CO)C(=O)N[C@H](C(=O)N1CCC[C@H]1C(=O)N[C@H](C(=O)NCC(=O)N[C@@H](CO)C(=O)N[C@@H](CC(N)=O)C(=O)N[C@H](C(=O)N[C@@H](Cc1ccc(O)cc1)C(N)=O)[C@@H](C)O)C(C)C)[C@@H](C)O
notes: Analogue of human amylin; also called compound 74
B2: N^ε1-[2-[2-[2-[[(4S)-4-carboxy-4-(19-carboxynonadecanoylamino)butanoyl]amino]ethoxy]ethoxy]acetyl]-[Ser14,Arg17,Pro21,Pro27,Pro31]-h-amylin (peptide)
peptide: K([AEEA-γGlu-C20 diacid])CNTATCATQRLASFLRHSSPNFGAIPSSTPVGSNTY-NH2
modifications: disulfide 2-7; N-terminus assumed
SMILES: CC[C@H](C)[C@H](NC(=O)[C@H](C)NC(=O)CNC(=O)[C@H](Cc1ccccc1)NC(=O)[C@H](CC(N)=O)NC(=O)[C@@H]1CCCN1C(=O)[C@H](CO)NC(=O)[C@H](CO)NC(=O)[C@H](Cc1c[nH]cn1)NC(=O)[C@H](CCCNC(=N)N)NC(=O)[C@H](CC(C)C)NC(=O)[C@H](Cc1ccccc1)NC(=O)[C@H](CO)NC(=O)[C@H](C)NC(=O)[C@H](CC(C)C)NC(=O)[C@H](CCCNC(=N)N)NC(=O)[C@H](CCC(N)=O)NC(=O)[C@@H](NC(=O)[C@H](C)NC(=O)[C@@H]1CSSC[C@H](NC(=O)[C@@H](N)CCCCNC(=O)COCCOCCNC(=O)CC[C@H](NC(=O)CCCCCCCCCCCCCCCCCCC(=O)O)C(=O)O)C(=O)N[C@@H](CC(N)=O)C(=O)N[C@@H]([C@@H](C)O)C(=O)N[C@@H](C)C(=O)N[C@@H]([C@@H](C)O)C(=O)N1)[C@@H](C)O)C(=O)N1CCC[C@H]1C(=O)N[C@@H](CO)C(=O)N[C@@H](CO)C(=O)N[C@H](C(=O)N1CCC[C@H]1C(=O)N[C@H](C(=O)NCC(=O)N[C@@H](CO)C(=O)N[C@@H](CC(N)=O)C(=O)N[C@H](C(=O)N[C@@H](Cc1ccc(O)cc1)C(N)=O)[C@@H](C)O)C(C)C)[C@@H](C)O
notes: Analogue of human amylin; also called compound 73
B3: N^ε1-[(4S)-4-carboxy-4-(19-carboxynonadecanoylamino)butanoyl]-[Arg14,Arg17,Pro21,Pro27,Pro31]-h-amylin (peptide)
peptide: K([γGlu-C20 diacid])CNTATCATQRLARFLRHSSPNFGAIPSSTPVGSNTY-NH2
modifications: disulfide 2-7; N-terminus assumed
SMILES: CC[C@H](C)[C@H](NC(=O)[C@H](C)NC(=O)CNC(=O)[C@H](Cc1ccccc1)NC(=O)[C@H](CC(N)=O)NC(=O)[C@@H]1CCCN1C(=O)[C@H](CO)NC(=O)[C@H](CO)NC(=O)[C@H](Cc1c[nH]cn1)NC(=O)[C@H](CCCNC(=N)N)NC(=O)[C@H](CC(C)C)NC(=O)[C@H](Cc1ccccc1)NC(=O)[C@H](CCCNC(=N)N)NC(=O)[C@H](C)NC(=O)[C@H](CC(C)C)NC(=O)[C@H](CCCNC(=N)N)NC(=O)[C@H](CCC(N)=O)NC(=O)[C@@H](NC(=O)[C@H](C)NC(=O)[C@@H]1CSSC[C@H](NC(=O)[C@@H](N)CCCCNC(=O)CC[C@H](NC(=O)CCCCCCCCCCCCCCCCCCC(=O)O)C(=O)O)C(=O)N[C@@H](CC(N)=O)C(=O)N[C@@H]([C@@H](C)O)C(=O)N[C@@H](C)C(=O)N[C@@H]([C@@H](C)O)C(=O)N1)[C@@H](C)O)C(=O)N1CCC[C@H]1C(=O)N[C@@H](CO)C(=O)N[C@@H](CO)C(=O)N[C@H](C(=O)N1CCC[C@H]1C(=O)N[C@H](C(=O)NCC(=O)N[C@@H](CO)C(=O)N[C@@H](CC(N)=O)C(=O)N[C@H](C(=O)N[C@@H](Cc1ccc(O)cc1)C(N)=O)[C@@H](C)O)C(C)C)[C@@H](C)O
notes: Analogue of human amylin; also called compound 63
B4: N^ε1-[2-[2-[2-[[(4S)-4-carboxy-4-(19-carboxynonadecanoylamino)butanoyl]amino]ethoxy]ethoxy]acetyl]-[Thr14,Arg17,Pro21,Pro27,Pro31]-h-amylin (peptide)
peptide: K([AEEA-γGlu-C20 diacid])CNTATCATQRLATFLRHSSPNFGAIPSSTPVGSNTY-NH2
modifications: disulfide 2-7; N-terminus assumed
SMILES: CC[C@H](C)[C@H](NC(=O)[C@H](C)NC(=O)CNC(=O)[C@H](Cc1ccccc1)NC(=O)[C@H](CC(N)=O)NC(=O)[C@@H]1CCCN1C(=O)[C@H](CO)NC(=O)[C@H](CO)NC(=O)[C@H](Cc1c[nH]cn1)NC(=O)[C@H](CCCNC(=N)N)NC(=O)[C@H](CC(C)C)NC(=O)[C@H](Cc1ccccc1)NC(=O)[C@@H](NC(=O)[C@H](C)NC(=O)[C@H](CC(C)C)NC(=O)[C@H](CCCNC(=N)N)NC(=O)[C@H](CCC(N)=O)NC(=O)[C@@H](NC(=O)[C@H](C)NC(=O)[C@@H]1CSSC[C@H](NC(=O)[C@@H](N)CCCCNC(=O)COCCOCCNC(=O)CC[C@H](NC(=O)CCCCCCCCCCCCCCCCCCC(=O)O)C(=O)O)C(=O)N[C@@H](CC(N)=O)C(=O)N[C@@H]([C@@H](C)O)C(=O)N[C@@H](C)C(=O)N[C@@H]([C@@H](C)O)C(=O)N1)[C@@H](C)O)[C@@H](C)O)C(=O)N1CCC[C@H]1C(=O)N[C@@H](CO)C(=O)N[C@@H](CO)C(=O)N[C@H](C(=O)N1CCC[C@H]1C(=O)N[C@H](C(=O)NCC(=O)N[C@@H](CO)C(=O)N[C@@H](CC(N)=O)C(=O)N[C@H](C(=O)N[C@@H](Cc1ccc(O)cc1)C(N)=O)[C@@H](C)O)C(C)C)[C@@H](C)O
notes: Analogue of human amylin; also called compound 75
B5: N^ε1-[(4S)-4-carboxy-4-(19-carboxynonadecanoylamino)butanoyl]-[Arg14,Arg17,Pro21,Pro27,Pro34]-h-amylin (peptide)
peptide: K([γGlu-C20 diacid])CNTATCATQRLARFLRHSSPNFGAIPSSTNVGPNTY-NH2
modifications: disulfide 2-7; N-terminus assumed
SMILES: CC[C@H](C)[C@H](NC(=O)[C@H](C)NC(=O)CNC(=O)[C@H](Cc1ccccc1)NC(=O)[C@H](CC(N)=O)NC(=O)[C@@H]1CCCN1C(=O)[C@H](CO)NC(=O)[C@H](CO)NC(=O)[C@H](Cc1c[nH]cn1)NC(=O)[C@H](CCCNC(=N)N)NC(=O)[C@H](CC(C)C)NC(=O)[C@H](Cc1ccccc1)NC(=O)[C@H](CCCNC(=N)N)NC(=O)[C@H](C)NC(=O)[C@H](CC(C)C)NC(=O)[C@H](CCCNC(=N)N)NC(=O)[C@H](CCC(N)=O)NC(=O)[C@@H](NC(=O)[C@H](C)NC(=O)[C@@H]1CSSC[C@H](NC(=O)[C@@H](N)CCCCNC(=O)CC[C@H](NC(=O)CCCCCCCCCCCCCCCCCCC(=O)O)C(=O)O)C(=O)N[C@@H](CC(N)=O)C(=O)N[C@@H]([C@@H](C)O)C(=O)N[C@@H](C)C(=O)N[C@@H]([C@@H](C)O)C(=O)N1)[C@@H](C)O)C(=O)N1CCC[C@H]1C(=O)N[C@@H](CO)C(=O)N[C@@H](CO)C(=O)N[C@H](C(=O)N[C@@H](CC(N)=O)C(=O)N[C@H](C(=O)NCC(=O)N1CCC[C@H]1C(=O)N[C@@H](CC(N)=O)C(=O)N[C@H](C(=O)N[C@@H](Cc1ccc(O)cc1)C(N)=O)[C@@H](C)O)C(C)C)[C@@H](C)O
notes: Analogue of human amylin; also called compound 65

The first test concerns the target T1, rat amylin receptor (rat calcitonin …). The experiment in a line: SPA competition with 125I-rat amylin, membranes of BHK cells with rat CTR + rat RAMP3 (Assay VI).
Regarding B1, the concentration for half-maximal inhibition (IC50) was 4.89 nM.

Take B2: the IC50 is 0.283 nM.

With B3, the IC50 came to 3.48 nM.

Consider B4, for which the IC50 was found to be 4.03 nM.

Turning to B5, the IC50 was 1.16 nM.

In a further test the target is T2, human calcitonin receptor. The experiment in a line: IC50 on human CTR divided by IC50 on human amylin receptor (Assays VII/V). Put shortly:
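Scintillation proximity competition binding on cell membranes at 35 ng/μL with SPA beads, in 50 mM Hepes pH 7.4, 1 mM CaCl2, 5 mM MgCl₂, 0.1% OA, 0.02% Tween20. Incubated 120 min at 25° C with shaking. IC₅₀ from one-site competition fit.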
Take B1: the “Ratio hCT/hAmylin binding” value stood at 101.

In the case of B2, the “Ratio hCT/hAmylin binding” value stood at 51.7.

Take B3: the “Ratio hCT/hAmylin binding” value was 157.

Take B4: the “Ratio hCT/hAmylin binding” value came to 91.4.

As to B5, the “Ratio hCT/hAmylin binding” value turned out to be 82.4.

A further test deals with T3, rat calcitonin receptor. Briefly: IC50 on rat CTR divided by IC50 on rat amylin receptor (Assays VIII/VI).
With B1, the “Ratio rCT/rAmylin binding” value turned out to be 22.3.

B2: the “Ratio rCT/rAmylin binding” value is 178.

In the case of B3, the “Ratio rCT/rAmylin binding” value is 35.6.

B4: the “Ratio rCT/rAmylin binding” value worked out at 110.

With B5, the “Ratio rCT/rAmylin binding” value was determined as 93.2.

A further test deals with T3, rat calcitonin receptor. Briefly: SPA competition with 125I-calcitonin, membranes of BHK cells with rat CTR (Assay VIII).
For the molecule B1, the IC50 amounted to 109 nM.

Take B2: the IC50 is 50.3 nM.

Turning to B3, the IC50 turned out to be 124 nM.

For the molecule B4, the IC50 is 442 nM.

In the case of B5, the IC50 turned out to be 108 nM.
